# According to paper PMC4869175, “Evidence that phytochrome functions as a protein kinase in plant light signalling” (Nature Communications, 2016):
# T1: AsphyA T418D, full length (Avena sativa, UniProt P06593 1-1129, T418D, phycocyanobilin chromophore assembled)
# T1 construct: Avena sativa phytochrome A, full length, with T418D; source: phycocyanobilin added in vitro
# T1 sequence (looked up): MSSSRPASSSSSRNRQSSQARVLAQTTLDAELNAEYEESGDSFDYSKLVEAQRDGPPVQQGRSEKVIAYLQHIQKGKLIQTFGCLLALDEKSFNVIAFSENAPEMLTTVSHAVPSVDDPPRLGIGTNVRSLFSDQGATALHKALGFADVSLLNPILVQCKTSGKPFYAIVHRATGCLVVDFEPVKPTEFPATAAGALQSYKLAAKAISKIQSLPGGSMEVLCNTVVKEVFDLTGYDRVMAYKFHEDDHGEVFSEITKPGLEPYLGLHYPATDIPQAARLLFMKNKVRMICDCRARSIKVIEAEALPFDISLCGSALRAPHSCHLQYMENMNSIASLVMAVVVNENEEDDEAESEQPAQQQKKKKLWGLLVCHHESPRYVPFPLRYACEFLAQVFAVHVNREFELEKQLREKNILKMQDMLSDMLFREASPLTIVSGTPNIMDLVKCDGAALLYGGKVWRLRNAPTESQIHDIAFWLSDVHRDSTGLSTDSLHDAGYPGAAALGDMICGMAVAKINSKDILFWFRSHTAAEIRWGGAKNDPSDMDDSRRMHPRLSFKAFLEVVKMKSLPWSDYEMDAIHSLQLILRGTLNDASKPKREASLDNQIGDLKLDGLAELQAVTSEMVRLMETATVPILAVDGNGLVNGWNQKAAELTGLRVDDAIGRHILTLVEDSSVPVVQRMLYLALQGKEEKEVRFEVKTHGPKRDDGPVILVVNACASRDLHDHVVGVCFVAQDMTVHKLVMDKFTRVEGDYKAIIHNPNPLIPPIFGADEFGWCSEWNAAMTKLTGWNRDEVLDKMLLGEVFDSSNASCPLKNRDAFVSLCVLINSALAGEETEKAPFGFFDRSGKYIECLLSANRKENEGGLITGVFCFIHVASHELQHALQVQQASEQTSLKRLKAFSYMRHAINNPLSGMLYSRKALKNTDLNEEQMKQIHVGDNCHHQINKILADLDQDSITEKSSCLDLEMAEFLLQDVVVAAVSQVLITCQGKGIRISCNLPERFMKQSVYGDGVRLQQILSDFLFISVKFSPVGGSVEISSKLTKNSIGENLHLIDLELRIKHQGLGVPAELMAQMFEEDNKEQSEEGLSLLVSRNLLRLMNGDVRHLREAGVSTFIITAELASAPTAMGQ
# T2: AsphyA D422R, full length (Avena sativa, UniProt P06593 1-1129, D422R, phycocyanobilin chromophore assembled)
# T2 construct: Avena sativa phytochrome A, full length, with D422R; source: phycocyanobilin added in vitro
# T2 sequence (looked up): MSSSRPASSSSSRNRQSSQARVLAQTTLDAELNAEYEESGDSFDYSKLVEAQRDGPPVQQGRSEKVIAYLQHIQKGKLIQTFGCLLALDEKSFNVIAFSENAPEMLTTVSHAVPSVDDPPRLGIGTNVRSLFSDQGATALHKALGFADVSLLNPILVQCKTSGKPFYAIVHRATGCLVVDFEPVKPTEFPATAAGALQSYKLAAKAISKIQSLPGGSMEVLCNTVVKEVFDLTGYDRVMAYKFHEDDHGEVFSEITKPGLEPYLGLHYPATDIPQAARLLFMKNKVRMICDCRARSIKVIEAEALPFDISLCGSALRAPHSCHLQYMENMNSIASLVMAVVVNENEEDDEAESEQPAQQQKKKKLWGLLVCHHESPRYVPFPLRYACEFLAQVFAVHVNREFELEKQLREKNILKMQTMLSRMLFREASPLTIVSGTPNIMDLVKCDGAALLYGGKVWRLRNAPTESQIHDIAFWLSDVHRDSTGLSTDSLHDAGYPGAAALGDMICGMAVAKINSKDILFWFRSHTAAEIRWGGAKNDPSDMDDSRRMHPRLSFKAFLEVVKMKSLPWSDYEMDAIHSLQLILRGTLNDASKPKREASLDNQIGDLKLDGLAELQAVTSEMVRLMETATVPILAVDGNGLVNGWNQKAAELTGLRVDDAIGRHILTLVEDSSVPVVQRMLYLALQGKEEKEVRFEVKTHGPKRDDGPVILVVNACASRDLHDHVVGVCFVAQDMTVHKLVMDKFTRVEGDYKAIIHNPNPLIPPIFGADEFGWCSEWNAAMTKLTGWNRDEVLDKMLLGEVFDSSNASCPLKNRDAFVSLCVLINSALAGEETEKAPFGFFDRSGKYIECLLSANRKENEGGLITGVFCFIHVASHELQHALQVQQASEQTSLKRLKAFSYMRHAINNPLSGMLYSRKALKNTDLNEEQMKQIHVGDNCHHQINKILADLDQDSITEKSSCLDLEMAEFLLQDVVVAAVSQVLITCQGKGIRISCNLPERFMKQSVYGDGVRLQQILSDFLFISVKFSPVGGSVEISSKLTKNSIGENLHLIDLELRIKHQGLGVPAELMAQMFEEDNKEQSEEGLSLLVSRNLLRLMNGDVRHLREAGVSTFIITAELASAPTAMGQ
# Assays:
# [1] = molecular target: T1, AsphyA T418D, full length; assay: pull-down; GST/strep-fused interacting protein (1.0 μg) held on glutathione resin, phytochrome (1.0 μg) in solution, Pr and Pfr forms both tested; 60 min at 4 °C in pull-down buffer (100 mM Tris-HCl pH 7.8, 1 mM EDTA, 150 mM NaCl, 100 μg/ml BSA); western blot with oat22 and anti-GST; conditions: both partners purified
# [2] = molecular target: T2, AsphyA D422R, full length; assay: as above; conditions: both partners purified
binding result [1],binding result [2],Binder
binds,binds,"GST/strep-fused FHL (natural protein, UniProt A8MR65 1-201, looked up, FHL, which with FHY1 takes part in the nuclear localization of phyA; not shown: GST, N-terminal, kept) MDDADKSCSPSLDHSDINDPMIVAVESLDTSKKRKLHAEESDLLPLPKHFCSEHQASLVNSSCPSSVIDYAECSYAMENTKTSDEASSSASFTGPSLYMFKDSIYSTGSSSSGYAATSSIEQCFSKVDHKTQEDTQDFTHMEFIYHDSEFAVEDLQEVLNPVESYILSSARWSVSNQDSKEATTKPTIDQEFEQYFSTLMM"
binds,binds,"GST/strep-fused FHY1 (far-red elongated hypocotyl 1) (natural protein, UniProt Q8S4Q6 1-202, looked up, FHY1 (far-red elongated hypocotyl 1); not shown: GST, N-terminal, kept) MPEVEVDNNNEKPSEINSFHHMIISSSKNVLKMEEVEVSKKRKFQTDQSDELSLLPLSKHTCFANVACSENTNGNSEIDTEYSMSSYVNSTTSMECNNDIEMKEESSGSCGEDKMISFESHLDYIYGTQNLEDFSEKVIENILYLDEQEEEEEDAKGCSSNAAKFVLSSGRWTVNQDDSTLHETKKPTIDQEFEQYFSTLML"
binds,binds,"GST/strep-fused PIF3 (natural protein, UniProt O80536 1-524, looked up, Probably Arabidopsis PIF3, as PIF1 and PIF4 are called Arabidopsis; not shown: GST, N-terminal, kept) MPLFELFRLTKAKLESAQDRNPSPPVDEVVELVWENGQISTQSQSSRSRNIPPPQANSSRAREIGNGSKTTMVDEIPMSVPSLMTGLSQDDDFVPWLNHHPSLDGYCSDFLRDVSSPVTVNEQESDMAVNQTAFPLFQRRKDGNESAPAASSSQYNGFQSHSLYGSDRARDLPSQQTNPDRFTQTQEPLITSNKPSLVNFSHFLRPATFAKTTNNNLHDTKEKSPQSPPNVFQTRVLGAKDSEDKVLNESVASATPKDNQKACLISEDSCRKDQESEKAVVCSSVGSGNSLDGPSESPSLSLKRKHSNIQDIDCHSEDVEEESGDGRKEAGPSRTGLGSKRSRSAEVHNLSERRRRDRINEKMRALQELIPNCNKVDKASMLDEAIEYLKSLQLQVQIMSMASGYYLPPAVMFPPGMGHYPAAAAAMAMGMGMPYAMGLPDLSRGGSSVNHGPQFQVSGMQQQPVAMGIPRVSGGGIFAGSSTIGNGSTRDLSGSKDQTTTNNNSNLKPIKRKQGSSDQFCGSS"
